Measured values from patent US20250282852A1.

Tests used:
[1] = target: biotinylated oligomeric Aβ1-42 (UniProt P05067); assay: Octet biolayer interferometry, biotinylated oligomeric Aβ on streptavidin biosensor, hCD22-His in solution
[2] = target: biotinylated oligomeric Aβ1-42 (UniProt P05067); assay: Octet 96e (printed as 'SPR system'), biotinylated oligomeric Aβ1-42 on streptavidin biosensor, CD22 extracellular domain at various concentrations in solution

How did the koff [1] turn out when “extracellular domain of CD22 (Sino Biological) (receptor)” was run?
The koff was 0.000522 s⁻¹.

And the kon [1]?
The kon was 186000 M⁻¹ s⁻¹.

And the Kd [2]?
The Kd was 2.79 nM.
